For orientation: Kd means the concentration at which binding is half-saturated. In general, IC50 refers to the concentration at which inhibition is half-maximal.

The source of these data is patent US20050101770A1 (SCHERING, published 2005).

B1: Monoclonal humanized antibody SCH 708980 to recombinant human IL-10 (humanized 12G8) (antibody, human IgG1, kappa, V domains shown)
VH: QVQLVESGGGVVQPGRSLRLSCAASGFTFSDYHMAWVRQAPGKGLEWVASITLDATYTYYRDSVRGRFTISRDNSKNTLYLQMNSLRAEDTAVYYCARHRGFSVWLDYWGQGTLVTVSS
VL: DIQMTQSPSSLSASVGDRVTITCKTSQNIFENLAWYQQKPGKAPKLLIYNASPLQAGVPSRFSGSGSGTDFTLTISSLQPEDFATYYCHQYYSGYTFGPGTKLELKR
notes: also called h12G8; hu12G8
B2: rat anti hIL-10 mAb 12G8 (r12G8): JES3.12G8 (antibody, V domains shown)
VH: EVQLVESGGGLVRPGGSLRLSCTASGFTFSDYHMAWVRQSPDKGLEWVASITLDATYTYYRDSVRGRFTISRNNAKTTLYLQMDSLRSEDTATFYCTRHRGFSVWLDYWGQGVMVTVSS
VL: DIQMTQSPSLLSASVGDRVTLNCKTSQNIFENLAWYQQKLREPPKLLIFNASPLQAGIPSRFSGSGSGTDFTLTITSLQPEDVATYFCHQYYSGYTFGPGTKLELKR
notes: Rat monoclonal antibody; also called Rat 12G8; JES.12G8
B3: recombinant cyno IL-10 (cyno IL-10) (ligand, UniProt P79338 19-178, looked up)
chain: SPGQGTQSENSCTRFPGNLPHMLRDLRDAFSRVKTFFQMKDQLDNILLKESLLEDFKGYLGCQALSEMIQFYLEEVMPQAENHDPDIKEHVNSLGENLKTLRLRLRRCHRFLPCENKSKAVEQVKNAFSKLQEKGVYKAMSEFDIFINYIEAYMTMKIRN
B4: recombinant human IL-10 dimer (hIL-10-dimer) (ligand, UniProt P22301 19-178, looked up)
chain: SPGQGTQSENSCTHFPGNLPNMLRDLRDAFSRVKTFFQMKDQLDNLLLKESLLEDFKGYLGCQALSEMIQFYLEEVMPQAENQDPDIKAHVNSLGENLKTLRLRLRRCHRFLPCENKSKAVEQVKNAFNKLQEKGIYKAMSEFDIFINYIEAYMTMKIRN
notes: also called hu IL-10

In test [1] the target is B4. Briefly: KinExA, solution equilibrium, hIL-10 run #1. How it is done: (§1) The equilibrium dissociation constant (Kd) for humanized antibody SCH 708980 was determined using KinExA 3000 (Sapidyne Instruments Inc.). KinExA uses the principle of the Kinetic Exclusion Assay method based on measuring the concentration of uncomplexed antibody in a mixture of antibody, antigen and antibody-antigen complex. The concentration of free antibody was measured by exposing the mixture to a solid-phase immobilized antigen for a very brief period of time. In practice, this was accomplished by flowing the solution phase antigen-antibody mixture past antigen coated particles trapped in a flow cell. Data generated by the instrument were analyzed using custom software. Equilibrium constants were calculated using a mathematical theory based on the following assumptions: [0139] 1. The binding follows the reversible binding equation for equilibrium: Kₒₙ[Ab][Ag]=Koff[AbAg] [0140] 2. Antibody and antigen bind 1:1, and total antibody equals antigen-antibody complex plus free antibody [0141] 3. Instrument signal is linearly related to free antibody concentration
(§2) Experimental conditions: All runs were done in duplicate. For hIL-10 runs the following conditions were used: [0145] Sample volume: 1.5 ml [0146] Sample flow rate: 0.25 ml/min [0147] Label volume: 0.5 ml [0148] Label flow rate: 0.25 ml/min [0149] mAb conc.: 0.1 nM [0150] Highest Ag (hlL-10) conc.: 4.0 nM [0151] […]
In general terms: Kinetic exclusion samples the free partner from a solution-phase mixture.

Test [2] addresses B3. Briefly: KinExA, mean ± S.D. (n) of the runs of Table 14.
In test [3] the target is B4. Nature of the test: KinExA, mean ± S.D. (n) of the runs of Table 14.
The target of test [4] is T1, recombinant mouse IL-10 (mIL-10) (mouse, UniProt P18893 19-178).
T1 sequence (looked up): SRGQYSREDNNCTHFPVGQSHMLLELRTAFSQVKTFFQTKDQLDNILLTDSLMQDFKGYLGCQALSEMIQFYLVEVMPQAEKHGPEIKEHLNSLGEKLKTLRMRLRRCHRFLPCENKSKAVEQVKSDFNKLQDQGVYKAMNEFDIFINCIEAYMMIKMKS
Briefly: KinExA, mean ± S.D. (n) of the runs of Table 14.

The target in test [5] is T1, recombinant mouse IL-10 (mIL-10). Nature of the test: KinExA, solution equilibrium, mIL-10 run #1. How it is done:
as §1
(§3) For mIL-10 runs the following conditions were used: [0154] […] Sample flow rate: 0.25 ml/min [0156] Label volume: 0.5 ml [0157] Label flow rate: […] [0158] mAb conc.: 1 nM [0159] Highest Ag (mIL-10) conc.: 50 nM [0160] Lowest Ag (mIL-10) conc.: 48.8 pM […]

Test [6] addresses B3. Nature of the test: KinExA, solution equilibrium, cyno IL-10 run #3. How it is done:
as §1
(§4) For cyno IL-10 runs the following conditions were used: [0163] Sample volume: 2 ml [0164] Sample flow rate: 0.25 ml/min [0165] Label volume: 1 ml [0166] Label flow rate: 0.25 ml/min [0167] mAb conc.: 0.1 nM [0168] Highest Ag (mIL-10) conc.: 5.0 nM [0169] Lowest Ag (mIL-10) conc.: 4.88 pM […]

Test [7] has as its target B3. Briefly: Biacore, mean ± S.D. (n); format not described. Background: Surface plasmon resonance follows binding to a sensor surface in real time, without labels.
Test [8] deals with B4. Briefly: Biacore, mean ± S.D. (n); format not described.
In test [9] the target is T1, recombinant mouse IL-10 (mIL-10). Nature of the test: Biacore, mean ± S.D. (n); format not described.
Test [10] shares this target. Nature of the test: KinExA, solution equilibrium, mIL-10 run #3. On the procedure:
as §1, §3

Test [11] deals with B4. Briefly: KinExA, solution equilibrium, hIL-10 run #3. On the procedure:
as §1, §2

The target in test [12] is B3. Briefly: KinExA, solution equilibrium, cyno IL-10 run #1. On the procedure:
as §1, §4

Test [13] deals with B3. Nature of the test: KinExA, solution equilibrium, cyno IL-10 run #2. How it is done: as §1, §4
Test [14] has as its target T1, recombinant mouse IL-10 (mIL-10). Nature of the test: KinExA, solution equilibrium, mIL-10 run #2. How it is done: as §1, §3
For test [15], the target named is B4. Briefly: KinExA, solution equilibrium, hIL-10 run #2. How it is done: as §1, §2
Test [16] deals with B4. Nature of the test: KinExA, mean (n).
Test [17] concerns the target B1. Nature of the test: IGEN competitive ECLA, mean ± S.D. (n); summary of Table 15. From the text: (§5) Materials used. 96 well Polypropylene plates (Costar, Cat. No. 3365, Fisher Sci. Cat. No. 07200697); assay buffer of 0.1% BSA, 0.05% tween 20, PBS pH 7.5; paramagnetic beads (Streptavidin-Dynabeads, Igen, Inc., Cat. No. 110029); recombinant human IL-10 dimer (hIL-10-dimer); recombinant human IL-10-monomer (hlL-10-mono); recombinant mouse IL-10 (mIL-10); recombinant cyno IL-10 (cyno IL-10); and recombinant hIL-10Ra (hL-10Ra): FLAG-tagged protein. Ori-Tag labeled anti-FLAG M2 monoclonal antibodies were prepared using Ori-Tag-NHS ester (Igen, Inc. Cat. No. 110034) according to manufacturer's protocol (OriTag label: IgG challenge ratio 8:1). Anti-Flag M2 monoclonal antibodies were purchased from Sigma (Cat. No. F3165). Ori-Tag labeled anti hIgG 1A2 monoclonal antibodies were prepared as above using rat anti hIgG monoclonal antibodies. Ori-Tag labeled anti rat IgG antibodies were prepared as above from polyclonal Goat anti rat IgG (H+L) antibodies (Jackson Immunoresearch Laboratories, Inc. PA, Cat. No. 112-005-143). Biotinylated recombinant human IL-10 (hIL-10-biotin) was prepared using TFP-PEO-biotin (Pierce, Cat. No. 21219) according to manufacturer's recommendations (Pierce bulletin 0874). The rat anti hIL-10 mAb 12G8 (r12G8): JES3.12G8 and humanized anti hIL-10 mAb 12G8 (hl2G8-1) were prepared as described herein.
(§6) Protocol. ⅓ serial dilutions in 50 microliters of the assay buffer were made in 96-well microtiter plate for all unlabeled IL-10 preparations (mIL-10, cyno IL-10, hIL-10 dimer, hIL-10 mono) starting with 3 μg/ml in the first well. All samples were run in duplicates. 50 μl of hIL-10-biotin at 25 ng/ml was added to each well, followed by the addition of either hIL-10Ra (50 μl at 100 ng/ml) or […] (50 μl at 10 ng/ml). 50 microliters of Ori-Tag conjugated secondary antibodies was added to each well at 500 ng/ml conc. For hIL-10Ra, r12G8 and h12G8 the following Ori-Tag conjugated were used accordingly: anti-FLAG M2-OriTag, anti-rat IgG-OriTag and anti hIgG 1A2-OriTag. Finally to each well 50 μl of Streptavidin-Dynabeads at 0.1 mg/ml was added. After a one hour incubation at room temperature the plate was processed by the M-series M8/384 analyzer. Percent inhibition of the signal by unlabeled IL-10 preparations was calculated relative to the control samples. To plot the data and calculate IC₅₀ the GraphPad Prism Software was used.

The target of test [18] is B2. The test is described as above.
Description: as §5, §6

For test [19], the target named is B1. Nature of the test: competitive ECLA (IGEN): unlabeled IL-10 varied, competitor hIL-10-biotin.
Description: as §5, §6

The target in test [20] is B2. The test is described as above.
Description: as §5, §6

Test [21] has as its target T2, recombinant hIL-10Ra (hIL-10Ra): FLAG-tagged protein (human, UniProt Q13651 22-235).
T2 construct: The order of the receptor part and the FLAG tag is unknown; also called huIL-10Ra; not shown: FLAG tag
T2 sequence (looked up): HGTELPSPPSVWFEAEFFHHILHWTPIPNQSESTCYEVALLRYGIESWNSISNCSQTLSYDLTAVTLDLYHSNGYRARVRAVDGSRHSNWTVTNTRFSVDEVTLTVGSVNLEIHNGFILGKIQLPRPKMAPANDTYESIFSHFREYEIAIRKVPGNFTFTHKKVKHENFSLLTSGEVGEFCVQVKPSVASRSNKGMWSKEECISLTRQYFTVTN
The test is described as above.
Description: as §5, §6

Regarding B1, the Kd in test [1] came out at 0.0274 nM; in test [2], 0.076 nM; in test [3] it was 0.025 nM; in [4], 0.286 nM; in test [5], 0.282 nM; in [6] it was 0.0925 nM. The Kd in test [7] turned out to be 0.659 nM; in [8], 0.511 nM; in [9], 8.6 nM; in test [10], 0.308 nM; in [11], 0.0155 nM; in test [12] it was 0.0397 nM. Moreover, the Kd in test [13] was determined as 0.0966 nM; in test [14], 0.267 nM; in test [15], 0.0323 nM.
For the molecule B2, the Kd stood at 0.023 nM in test [16], 0.33 nM in test [7], 0.277 nM in [8] and 7.4 nM in [9].
For B3, the IC50 in test [17] worked out at 4.9 nM; in test [18], 6.6 nM; in test [19], 4.9 nM; in test [20], 6.6 nM; in test [21], 17.6 nM.
For B4, the IC50 in [17] stood at 4 nM; in test [18], 4.7 nM; in test [19], 4 nM; in test [20] it was 4.7 nM; in test [21] it was 2.9 nM.
